B1: 1789 Fab (Fab, V domains shown)
VH: EVQLVESGGGLVQPGGSLRLSCAASGFNVSYSSIHWVRQAPGKGLEWVASISSSSGYTYYADSVKGRFTISADTSKNTAYLQMNSLRAEDTAVYYCARNYWGWYPFYYFAFDYWGQGTLVTV
VL: DIQMTQSPSSLSASVGDRVTITCRASQSVSSAVAWYQQKPGKAPKLLIYSASSLYSGVPSRFSGSRSGTDFTLTISSLQPEDFATYYCQQGWDYPITFGQGTKVEIKR
B2: 1789 IgG (antibody, V domains shown)
VH: EVQLVESGGGLVQPGGSLRLSCAASGFNVSYSSIHWVRQAPGKGLEWVASISSSSGYTYYADSVKGRFTISADTSKNTAYLQMNSLRAEDTAVYYCARNYWGWYPFYYFAFDYWGQGTLVTVSS
VL: B1 VL

What was measured:
[1] = molecular target: T1, Full-length cynomolgus NT5E (recombinant) (cynomolgus, UniProt P21589 27-549 (human entry)); assay: SPR, His-captured NT5E, no ATP; SPR, No ATP
T1 construct: also called cNT5E; cyno NT5E
T1 chain: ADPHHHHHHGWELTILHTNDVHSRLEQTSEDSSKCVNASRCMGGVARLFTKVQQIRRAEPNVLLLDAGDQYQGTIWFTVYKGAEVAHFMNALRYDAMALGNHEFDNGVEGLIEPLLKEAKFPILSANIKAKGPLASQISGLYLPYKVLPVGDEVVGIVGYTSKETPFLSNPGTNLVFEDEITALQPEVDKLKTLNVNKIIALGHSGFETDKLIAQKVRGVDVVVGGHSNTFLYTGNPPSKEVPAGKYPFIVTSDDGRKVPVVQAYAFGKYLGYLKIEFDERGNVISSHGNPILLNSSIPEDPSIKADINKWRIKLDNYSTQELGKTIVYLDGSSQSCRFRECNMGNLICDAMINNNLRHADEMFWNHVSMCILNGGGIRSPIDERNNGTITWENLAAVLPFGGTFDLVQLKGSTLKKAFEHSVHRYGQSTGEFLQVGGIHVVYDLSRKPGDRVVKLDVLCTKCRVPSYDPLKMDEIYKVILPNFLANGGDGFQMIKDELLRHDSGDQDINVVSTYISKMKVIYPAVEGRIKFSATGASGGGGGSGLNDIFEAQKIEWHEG
Experimental: All SPR experiments were performed at 25° C. using MASS-1 (Bruker) instrument. hNT5E, mNT5E and cNT5E were immobilized onto a nitrilotriacetic acid (NTA) sensor chip via His-tag. For kinetic experiments, after ligand immobilization, 2-fold serial dilutions of the Fabs were injected. After double-reference subtraction data were analyzed with BiaEvaluation (GE Healthcare) or Sierra Analyser (Bruker) software. The experiments were carried in buffers in presence and absence of 1 mM ATP to compare the kinetic parameters of the Fabs binding to closed and open form of NT5E.

[2] = molecular target: T2, human NT5E expressed on MDA-MB-231 cells (human, UniProt P21589 27-549); assay: flow cytometry on MDA-MB-231 cells, PBS without ATP; -ATP (PBS alone), MDA-MB-231 cells
T2 construct: whole, on cells; also called NT5E-expressing MDA-MB-231 cells; CD73
T2 sequence (looked up): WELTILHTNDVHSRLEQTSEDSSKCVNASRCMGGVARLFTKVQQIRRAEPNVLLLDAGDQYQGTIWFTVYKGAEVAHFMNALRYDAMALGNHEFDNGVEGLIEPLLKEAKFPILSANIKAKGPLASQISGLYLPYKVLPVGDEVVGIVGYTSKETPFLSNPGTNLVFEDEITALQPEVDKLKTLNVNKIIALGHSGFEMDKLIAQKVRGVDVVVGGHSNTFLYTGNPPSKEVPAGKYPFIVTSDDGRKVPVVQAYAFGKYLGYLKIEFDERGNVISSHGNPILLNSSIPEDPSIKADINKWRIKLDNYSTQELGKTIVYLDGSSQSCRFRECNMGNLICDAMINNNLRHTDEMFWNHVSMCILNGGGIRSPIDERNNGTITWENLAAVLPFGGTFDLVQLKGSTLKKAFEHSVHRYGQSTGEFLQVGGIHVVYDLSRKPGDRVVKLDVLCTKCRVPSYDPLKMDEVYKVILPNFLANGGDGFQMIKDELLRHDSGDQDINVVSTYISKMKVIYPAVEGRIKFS
Experimental: Flow cytometry analysis of antibodies binding to human NT5E expressed on MDA-MB-231 cells in ATP-free condition (black) or in 1 mM ATP (red). Top panel: (left) 1780 Fab and (right) 1780 IgG titrations. […] Binding was measured at the indicated range of antibody concentrations and is expressed as mean±st. dev of median fluorescence intensity (MFI) of 1-2 replicates. Data were analyzed using OriginLab, and EC₅₀ values are shown next to the fitted curves.
Human MDA-MB-231 cells and murine 4T1 cells were grown to 90% confluency, detached with 5 mM EDTA for 15 min at 37° C. and then resuspended in 37° C. lx PBS (#10010031, Gibco) supplemented with 1% FBS and 1OpM ZnCl2. Separate working buffers (WB) of PBS and 1% FBS with or without fixed nucleotide concentrations were used throughout all washing steps to maintain constant condition. In 96-well plates (#3799, Costar), 0.2×10⁶ cells were added per well. The plates were spun at 500×g for 5 min and the supernatant was removed. Anti-NT5E antibodies were diluted to the desired concentration in 100 μL WB, added to the cells and the plates were incubated for 20 min at 37° C. Plates were spun and cells were washed twice with WB then spun a second time. […] Samples were analyzed by flow cytometry using CytoFLEX (Beckman Coulter) and mean fluorescence intensity (MFI) data was extracted using FlowJo software. […]

Binder | kon [1] [M⁻¹ s⁻¹] | EC50 [2] [nM]
B1 | 140000 | –
B2 | – | 124

Reference: patent US20240199757A1 (UNIVERSITY OF CHICAGO, published 2024)
